Results on 167 variants are retold here after the RNAGym collection of RNA variant scans (doi:10.7554/elife.90254).

Sequences and labels used below:
B1: OR4K15 (parent)
chain: GUUAACGGUCAUAGGCCAUGGAAACUAGGAGCACCAUUUCGCUGCCAGUGAAGAAAUGAACAAAGAAAAUCUGGGCCAGGCAGGCAUCAAAAGAAAUAGUCUUGCGCUCAACCAGAAAGUCUGUAAUCAUUUUAAGGGUA

Variants of B1 are the subject of the series. In words: self-cleavage, relative activity (ratio to wild type); higher = more cleavage; in vitro, sequencing; the parent is a self-cleaving ribozyme.
Turning to A60G A78G, the self-cleavage came out at 0.23. In the case of U57C C105G, the self-cleavage was found to be 0.01.

As for A59U A114C, the self-cleavage came out at 0.03. Next, A60U A94U: 1.82; A62G A92U: 1.01; A59U U131C: 1.25. The result for A59G A126U reads 1.27; that for A59U A96U, 0.97; that for C61U A98G, 0.45.

Regarding A62C A63G, the self-cleavage was 1.55. The result for A62G A110U reads 2.32; that for A62G A110G, 0.16. The result for A59C U124A reads 0.73; that for C61U A64G, 1.63; that for C61U C85U, 0.95. The result for A62G A96G reads 1.53; that for A59U A117C, 0.63. Take A59U U102C: the self-cleavage came out at 1.23. As for A60G A62G, the self-cleavage was 1. The result for A60G A62U reads 1.51. The result for U57G A135G reads 1.74.

Take U57G G137C: the self-cleavage amounted to 1.71. Next, C61G A62U: 1.87; A60G C101A: 0.23; A60U A95G: 1.6. Next, A60U U130C: 1.22; A62G A63U: 1.61; A59G A90G: 0.78. Next, A60G A86U: 1.44; A59U A68G: 1.43; A59U A68C: 1.35.

As to A59U G79A, the self-cleavage amounted to 0.14. For A62G A91U, the self-cleavage is 1.61. The result for A59U A89U reads 2.6. Next, A60U G104A: 0.03; A59G G106A: 0.02; C61G A110G: 0.41. Next, U57C U100A: 0.4.

A62C A134G: the self-cleavage worked out at 1.15. The result for A60G U97C reads 1.05.

Take A59G U132G: the self-cleavage was found to be 1.41.

Regarding A59G U132C, the self-cleavage is 0.46. Next, A60G A98U: 2.21. Next, A60G C81U: 0.21; A59G U130C: 1.52. The result for A59G U130G reads 1.62; that for A60G U132A, 1.17; that for A60G A125G, 0.69.

A62G A95G: the self-cleavage stood at 2.2. The result for A59U G137U reads 2.15; that for A59U G137A, 2.05.

A60U A69G: the self-cleavage came to 1.51. Next, A59G U103C: 0.67; U57C U133C: 1.02; U57G U100C: 2.26. With A60C A82G, the self-cleavage was determined as 0.28. Next, A59G A92U: 1.08. The result for A59G U72A reads 0.05; that for A60G G104A, 0.02. Next, A60G A66G: 1.15.

With A59G C71U, the self-cleavage came to 0.22. Next, U57C G106U: 0.03; A59G A95G: 1.68; U57G A129G: 1.15. A60C U72C: the self-cleavage was 0.16. Take U57C C101A: the self-cleavage worked out at 0.1. Next, A62C A135G: 1.24. In the case of A59G A86U, the self-cleavage was determined as 1.71. As for A59G A86C, the self-cleavage amounted to 0.64.

In the case of A59G A86G, the self-cleavage came to 0.5. Next, G58A A140G: 1.85; U57G C81U: 0.29.

In the case of A60G A63C, the self-cleavage was determined as 1.48. Next, A60G A63G: 1.35; A59G A62C: 0.43. Next, A59U A78U: 0.31; A59U A78G: 0.27; A59U A91G: 0.79.

With U57G A90G, the self-cleavage came to 0.88. As to A62C A92G, the self-cleavage was found to be 1.58. The result for A60G A90C reads 0.79; that for U57G U120C, 1.11; that for A59G A111C, 0.03. The result for A59G A111G reads 0.02. Next, A60G U130C: 1.07; A60G U130G: 1.18. Take G58A G106A: the self-cleavage came out at 0.01. Next, A60U U70C: 1.72; A59U U130C: 1.05.

With U57G A117G, the self-cleavage came out at 2.08. The result for A59G A114C reads 0.03; that for A60G A126G, 0.27; that for A59G C109G, 0.03. As for A60U U102C, the self-cleavage was 2.8. Next, A60G A111U: 0.11; A60G A111G: 0.03; A60U U87A: 1.61. Next, A60U U87C: 1.43; G58U A98G: 0.34.

Regarding C61U G106U, the self-cleavage amounted to 0.04. The result for A60G A140G reads 1.21. The result for A59G A68U reads 1.91. For the variant A62C A96G, the self-cleavage came to 2.59.

As for A60C A111G, the self-cleavage is 0. As to A59U U108C, the self-cleavage worked out at 0.02.

Regarding G58A A62G, the self-cleavage is 1.01. As for G58A A116G, the self-cleavage was found to be 0.29.

On to A60U A67G, for which the self-cleavage stood at 2.09. The result for A60G A114U reads 0.06. As to A59G U122A, the self-cleavage was 1.38. Next, A60U A116G: 1.37; G58U U108C: 0.02. U57C U108A: the self-cleavage came to 0.02.

With A59G C101U, the self-cleavage worked out at 0.26.

As to C61U A63G, the self-cleavage turned out to be 2.17. Take A59G C113U: the self-cleavage turned out to be 0.03. Next, A59C U132C: 1.64. As for A59U U132A, the self-cleavage turned out to be 1.61.

Take A60G A92G: the self-cleavage turned out to be 0.87. A59G A134U: the self-cleavage was determined as 1.94.

On to A59G A134G, for which the self-cleavage amounted to 0.34. The result for A60G G123A reads 1.05; that for A59G A66G, 1.15; that for A59G A66U, 1.75. In the case of U57C U87A, the self-cleavage was 0.98.

For A60G C105U, the self-cleavage turned out to be 0.28. Next, A60G C128G: 0.87; A60G U102A: 0.99; G58U A110G: 0.11.

Consider A60G A118U, for which the self-cleavage was found to be 0.79. Next, A60G A118G: 1.07; A60G A118C: 0.74.

On to U57C U127C, for which the self-cleavage stood at 0.66. On to U57C U127A, for which the self-cleavage turned out to be 1.19.

Consider A60U U103C, for which the self-cleavage came out at 0.16.

U57C A129U: the self-cleavage came to 1.47. The result for U57C A129G reads 1.43. The result for G58A A126G reads 0.63.

In the case of A59G A118C, the self-cleavage stood at 0.9. A60G G79C: the self-cleavage amounted to 0.07. Next, A62C A78U: 0.46; C61U A116G: 0.39. Next, A60G A69G: 0.19.

In the case of C61U A78U, the self-cleavage was 0.43. Next, A60G A68G: 1.31. The result for A60G A68U reads 1.38; that for G58U U127C, 1.33. On to U57C U131C, for which the self-cleavage was determined as 0.94. The result for A60U A134G reads 1.84; that for G58U A89U, 1.46. Next, A62C U97A: 1.86; A59C: 1.66; A59G: 1.06.

Regarding A59U, the self-cleavage was determined as 1.14. The result for A59G U120C reads 0.97; that for A59G U108C, 0.02. As to A59G U108A, the self-cleavage was found to be 0.01. Next, G58U U87C: 0.38.

On to A59U A95G, for which the self-cleavage is 1.85. Next, A60C U108A: 0.04; A60G A116G: 0.5; A60G A116U: 0.31. The result for A59U U103G reads 0.04; that for A60G U131C, 0.15. The result for A62G A68G reads 1.12; that for A60U G79U, 0.08.

As for A62C A86G, the self-cleavage is 1.15.
